The nature of this data set: analytical gel filtration (Superdex200), apparent molecular weight. It is filed as physicochemical. An excerpt: In the fusion protein of GLP-1(A8G/G22E)-Fn8-COL18NC1 described in example 4, the flexible unstructured linker between Fn8 and COL18NC1 contains six residues (GGGSGG; SEQ ID NO:89). To generate the flexible un-structured linkers with different lengths, we have synthesized the genes GLP-1(A8G/G22E/R36S)-Fn8-COL18NC1-20, GLP-1(A8G/G22E/R36S)-Fn8-COL18NC1-30, GLP-1(A8G/G22E/R36S)-Fn8-COL18NC1-54 and GLP-1(A8G/G22E/R36S)-Fn8-COL18NC1-60. In these genes, the length of the flexible unstructured polypeptide linker between Fn8 and COL18NC1 contained 20, 30, 54 and 60 residues, respectively. The protein sequences of GLP-1(A8G/G22E/R36S)-Fn8-COL18NC1-20, GLP-1(A8G/G22E/R36S)-Fn8-COL18NC1-30, GLP-1(A8G/G22E/R36S)-Fn8-COL18NC1-54 and GLP-1(A8G/G22E/R36S)-Fn8-COL18NC1-60 are listed as SEQ ID NO:8-11. The synthetic genes of GLP-1(A8G/G22E/R36S)-Fn8-COL18NC1-20, GLP-1(A8G/G22E/R36S)-Fn8-COL18NC1-30, GLP-1(A8G/G22E/R36S)-Fn8-COL18NC1-54 and GLP-1(A8G/G22E/R36S)-Fn8-COL18NC1-60 were grafted to the pET29b by NdeI and XhoI for protein expressions. The expression and purification of these fusion proteins were carried out using similar protocols described in example 3. To estimate the hydrodynamic radius and/or the Rg of the fusion proteins, the purified proteins were loaded on an analytical gel filtration column Superdex200 (GE Healthcare).
Moreover, the flexible unstructured linker between the therapeutic polypeptide and the scaffold protein may adjust the hydrodynamic radius and/or the Rg of the fusion molecule in a tunable manner.
The apparent molecular weights of the fusion proteins were estimated by use of an analytical gel filtration column Superdex-200 (GE Healthcare) mounted on the AKTA FPLC system (GE Healthcare). The purified fusion proteins GLP-1-Fn8, GLP-1-Fn8-COL18NC1, GLP-1(A8G/G22E/R36G)-Fn8-p246-COL18NC1 were loaded on the Superdex200 column. GLP-1-Fn8 is a fusion protein of GLP-1 and Fn8 and contains the first 144 amino acid residues of the fusion protein GLP-1-Fn8-COL18NC1 (SEQ ID NO:2). […] The genuine molecular weights for the fusion proteins GLP-1-Fn8 monomer, GLP-1-Fn8-COL18NC1 trimer, and GLP-1(A8G/G22E/R36G)-Fn8-p246-COL18NC1 trimer were ˜15 Kd, 65 Kd and 123Kd, respectively.

B1: GLP1(A8G/G22E/R36G)-Fn8-p246-COL18NC1: GLP-1 mutant, Fn8, pCloud p246, COL18NC1 fusion; SEQ ID NO: 16 (protein)
chain: HGEGTFTSDVSSYLEEQAAKEFIAWLVKGGGSGGGSGGGSGGGSGGGSGSGGAVPPPTDLRFTNIGPDTMRVTWAPPPSIDLTNFLVRYSPVKNEEDVAELSISPSDNAVVLTNLLPGTEYVVSVSSVYEQHESTPLRGRQKTGGGGSGGGSGSGSESGSGGGSTSSGTGSETESPGSGSESGSGPSSAGSGSGSESGSGSGSSGPGSTGGSGSESGSGPGSSGTGGTATGSGSESGSGPGSSGPGSTGSGSGSESGSGSGSSGTGSTGGSGSESGSGPGSPRPGSTGTGSGSESGSGPGSSERGSAGGSGSESGSGTSESSASGSTGGSGSESGSGSESGSGSGSESGSGPESPGSGGSGSESGSGTSGSTGSGSESGSGGGSGGGSGGGASSGVRLWATRQAMLGQVHEVPEGWLIFVAEQEELYVRVQNGFRKVQLEARTPLPRG
On to B1, for which the apparent molecular weight is recorded as approximately 550 Kd.

For the origin of these results see US10246503B2, “Method of improving the pharmacokinetic profile of a therapeutic polypeptide and the use thereof” (BEIJING ANXINHUAIDE BIOTECH. CO., LTD, priority 2012, dated 2019).
